# Experiment: soluble on expression in E. coli; label from the status in PepcDB or PDB records
row,Sequence,soluble on expression in E. coli
1,MRHPLISLLLLIAFYSTSSEAFVPKCNSFYVRWPRVRLNFKAVAEARLSLKGCQSACSLGEDPVSPGKQLECAAVNHQASPDGFSHLCAVFQPHQLQNVDGYVEADDRFTFYWKYCLPSTRKCSGEYAFTYLSDRYMDQKSVIKWTTKANLEECLSDCLDEKSFECRSISFNRTDGGCHMSKDSQISRPEAIRLNNNPNYRIDYYENNCYNLSESFTFKHECRDNGISVSVKSRLPYTGAIYGLYDFFTCRTEPKEATEFDHFFPYQTVSKNCSDSIKYKGNEMVLEVVLSTDGIEPLYFITPEDLTYQAKCPISGVKAKDPANTKSSAHLDNRNKAMEASAHALFELLSKTGDDEALQNTFPLPLTTTTEVISDVPTTTVQTSTTVPTTPSKTTATTTTTPKPTTTETATTSSSTTTVTTQKPTTVTSTTTLPSTTASTTTKTTTSTPTSPQTTTTHVGAPASSVASVAHDGSTLAGKPKVPVIFDIFHNGQPVEAVVVGTKISLSFRPHYPIPPEYVDVRGCQVEPIDPKYEWEHEPLFIIRDGCPADGVGLVCPPTHSEFGAKVSVEAFRYQTTGQVQYSCLVRICPFAPCPKNTCDDVEGCDSSYMHRYRRELSLEDIKKALEANPELASQFGISPSAFARNPSKSKNFTSVVEEQQRIALGGDYLVRRRLIVVNSEDQLRYYVRTGNI,not soluble
2,MRHVSNGDPVRVVIVTDGAYGAPAESGDYAQTRRRESTRAAAILGYGAPEFWNLPDRGLEYGERLIQRVLTAMEDHAAELVYAPSWWEVHPDHRVLALAATEAVRRCTRPLRLAMYEVGVPLQPNALLDITDLAERKASAVACFSSQLAQQDYDEQIASLNRFRTYTLPRTVRAAEGYLVLAAEELRNRIPRMMTQKDRLAVRGETGDTAATPLVSVIIPSMDGPRLKEALDSVALQTYPRIEAVVIDAKGEGHTPLPRWCGRFPLRFIPSDISLSRGRAADVGLEHAEGDYLVFLGEDDVFQPGDVASLVAEAARKQGTGLCSHADRRMTVFSGGVVDGSPRTGKPGKPAFLPLHAVLFDRSLAELRCRFDGDANVPEDGDFWDQAMQHVASIHPGACRHGHGLPGGEAGRHTIVRLPPWTSPAPLPPGASLARTPHPTERDSLRRRIQRAGRRIYETPPRGLTDALVRTAYRIWARLSSDSMITNDGKGTLEHHHHHH,not soluble
3,MRIAVIDYDKCNPDKCGHFLCERVCPVNRMGGEAIIIDEENNRPIIQEASCTGCGICVHKCPFKAISIVNLPEQLEEDCVHRYGVNAFVLYRLPVVKDGMVVGIVGPNGTGKTTAVKILAGQLIPNLCCDNDSWDDVIKAFRGSELQNYFEKLKNGEIKPVVKPQYVDLLPKAVKGKVGELLKKVDETGKFEEIVKVLELEKVLEREIDQLSGGELQRVAIAAAILRKAHFYFFDEPSSYLDIRQRLNVARVIRRLADEGKAVLVVEHDLAVLDYLSDIVHIVYGEPGVYGIFSQPKGTRNGINEFLQGYLKDENVRFRPYEIKFTKLSERVEVERETLVEYPRLVKDYGSFKLEVEPGEIRKGEVIGIVGPNGIGKTTFVKMLAGVEEPTEGKVEWDLTVAYKPQYIKAEYEGTVYDLLSKIDASKLNSNFYKTELLKPLGIIDLYDKNVNELSGGELQRVAIAATLLRDADIYLLDEPSAYLDVEQRLATSRAIRHLMEKNEKTALVVEHDVLMIDYVSDRLIVFEGEPSKYGKALPPMGMREGMNRFLASVGITFRRDPDTGRPRANKEGSVKDREQKEKGEYYYTD,soluble
4,MRIIMPVEFSRIVRDVERLIAVEKYSLQGVVDGDKLLVVGFSEGSVNAYLYDGGETVKLNREPINSVLDPHYGVGRVILVRDVSKGAEQHALFKVNTSRPGEEQRLEAVKPMRILSGVDTGEAVVFTGATEDRVALYALDGGGLRELARLPGFGFVSDIRGDLIAGLGFFGGGRVSLFTSNLSSGGLRVFDSGEGSFSSASISPGMKVTAGLETAREARLVTVDPRDGSVEDLELPSKDFSSYRPTAITWLGYLPDGRLAVVARREGRSAVFIDGERVEAPQGNHGRVVLWRGKLVTSHTSLSTPPRIVSLPSGEPLLEGGLPEDLRRSIAGSRLVWVESFDGSRVPTYVLESGRAPTPGPTVVLVAGGPFAEDSDSWDTFAASLAAAGFHVVMPNYRGSTGYGEEWRLKIIGDPCGGELEDVSAAARWARESGLASELYIMGYSYGGYMTLCALTMKPGLFKAGVAGASVVDWEEMYELSDAAFRNFIEQLTGGSREIMRSRSPINHVDRIKEPLALIHPQNDSRTPLKPLLRLMGELLARGKTFEAHIIPDAGHAINTMEDAVKILLPAVFFLATQRERR,soluble
5,MRILLIHSDYIEYEVKDKAIKNPEPISEEEKKGRMDEVLVAFISVEKVDETNPEEVVSKAVEEIINVASQVKAENVFVYPFAHLSSELAKPSVAQEILRKVYEGLKEKGYNVGKAPFGYYKAFKISCKGHPLAELSRTIIPEGAKEEEVPEALKKEETELVSYWYILTPEGELIEVDKFDFTGYENLRKFANYEISKSRIAEKEPPHVKLMLEHELVDYEPGSDPGNLRYYPKGRLIKSLLEQYVTEKVIEYGAMEVETPVMYDFEHPALEKYLNRFPARQYIVLSGDKKYFLRFAACFGQFLISKDAVISYRHLPLRMYELTRYSFRREKRGELSGLRRLRAFTMPDMHTLAKDLEQAKDEFKKQFKLSMEVLKGVGLTPEDYEVAIRFTEDFWKENRDFIVELVKIIGKPVLIEMWKQRFFYFILKFEFNFVDNLDKAAALSTVQIDVENAERFGIKYYDENGEEKYPLILHCSPSGAIERVMYAILEKQAKLMQEGKKPMLPLWLSPIQVRVIPVSEEYLDYALYIAGKLEGARIRVDVDDEDERLNKKIRRAEKEWIPYIVVVGAKEKESGTITVRRREDGKQYETRLEELIKEIKEKVEGFPYKPRPLPLLLSKRPKFRG,soluble
6,MRIMGLDVGSKTVGVAISDPLGFTAQGLEIIKIDEEKAEFGFTRLEELVKQYQVEQFVIGLPKNMNNTNGPRVDASITYGNHIEHLFGLPVHYQDERLTTVEAERMLIEQADISRGKRKKVIDKLAAQLILQNYLNRNFLEHHHHH,soluble
7,MRITLVDHPLVQHKLAHLRDKRTGPKDFRELAEEVAMLMAYEAMRDLELEETTVETPIAPARVKVLSGKKLALVAILRAGLVMVEGILKLVPHARVGHIGLYRDPESLNPVQYYIKLPPDIAERRAFLLDPMLATGGSASLALSLLKERGATGVKLMAILAAPEGLERIAKDHPDTEVVVAAIDERLNDHGYIVPGLGDAGDRIYGTK,soluble
8,MRIWNRIRCISTIRKNPTCQDVKAPLVSSQVFDPDVWSWNSAPESSLDLPIDSSPNFSMPPATSSETEFAENEESTSSSDDKKKRSEVIEENRSDGHAPIKSALSILMRSLQKSSSMTTSLSDIDVTLFNFHSTKFAERLLNRNVSSVVIVESSHVFSKNAKKFASEFSNVSAYRADIYTLMGVGRKKTAQFPRKMMFADFGKNETPEQYENIHPLTLTSAESSSNSEHLHAKFRRPHLLGVLPTPTIQRTILDSMIQHVLLHHSGNDEDTIFRYGDTNLLTFLGSGILAQYTCSTDNRLNFLSHQHRRHSALFNKLFEVKMLQTRQSEDPETAEIPIGHPPTSFHPLLPTAKKITHEKKLSDVNLTNGLQYPVQILPQKHLKIGGNEVTTENGMGRMLVDYACFMTQIGRQPNAKAVDQVVRLLWPESALSIPADILGDHKIGQLPNDHLDVIFQHVHEELHNTSIAKTYCNELKIKRAI,not soluble
9,MRKDETSNTSPDISAAQPASALRYHLRPPRRNDGAAIHQLVSECPPLDLNSLYAYLLLCEHHAHTCVVAESPGGRIDGFVSAYLLPTRPDVLFVWQVAVHSRARGHRLGRAMLGHILERQECRHVRHLETTVGPDNQASRRTFAGLAGERGAHVSEQPFFDRQAFGGADHDDEMLLRIGPFTHPPH,not soluble
10,MRKEAIHHRSTDNFAYAYDSETLHLRLQTKKNDVDHVELLFGDPYEWHDGAWQFQTMPMRKTGSDGLFDYWLAEVKPPYRRLRYGFVLRAGGEKLVYTEKGFYHEAPSDDTAYYFCFPFLHRVDLFQAPDWVKDTVWYQIFPERFANGNPAISPKGARPWGSEDPTPTSFFGGDLQGIIDHLDYLADLGITGIYLTPIFRAPSNHKYDTADYFEIDPHFGDKETLKTLVKRCHEKGIRVMLDAVFNHCGYEFAPFQDVLKNGAASRYKDWFHIREFPLQTEPRPNYDTFAFVPHMPKLNTAHPEVKRYLLDVATYWIREFDIDGWRLDVANEIDHQFWREFRQAVKALKPDVYILGLIWHDAMPWLRGDQFDAVMNYPLADAALRFFAKEDMSASEFADRLMHVLHSYPKQVNEAAFNLLGSHDTPRLLTVCGGDVRKVKLLFLFQLTFTGSPCIYYGDEIGMTGGNDPECRKCMVWDPEKQNKELYEHVKQLIALRKQYRALRRGDVAFLTADDEVNHLVYAKTDGNETVMIIINRSNEAAEIPMPIDARGKWLVNLLTGERFAAEAETLCVSLPPYGFVLYAVESW,soluble
11,MRKEEVLALLRSRWPELCALGVAELYLFGSLARGEARPRSDVDLLVAFATPPGFEGYWRVKEFLESLLGRPVDLVMKGALKPWAVSEVLGEAVRVA,soluble
12,MRKIHFTDKYLLSPYHPVTVLVAGAGGTGSQVITSLARMSVALQALGHPGLHLTAFDPDTVTEANIGRQLFSETELGLNKATALVTRVNRFFGYAWEARECRYPIITKEGDKSVPLANIIITCTDNTRSRLDLWRFLKKYREYKKNDEKAPIYWMDFGNAQTTGQVLIGNIRSKISQPASSEYLPMPRMNVITEEVSYSTIREEDSGPSCSLAEALRKQDLFINSMLAQIGCDILWCMFREGRTFYRGAYLNLDTLRVNPIPV,not soluble
13,MRKLKMMLCVMMLPLVVVGCTSKQSVSQCVKPPPPPAWIMQPPPDWQTPLNGIISPSGNDWLEHHHHHH,not soluble
14,MRKLWPLALLLAACGAQDVGAGLDPLRLTATSLPPAYLGEPYSASLAAEGGVRPYSFTLDGKLPEGLSFQGGRLFGVPKEKGSFPLLLTVEDAAKNSRAQRLTLTVSDPPPPRLALVLPPAQVEGPFLLLARVEGREAVGFQMEVRLADLEPDLAGLKALSPAHLLDYDPATRLLRLDMAFAKPVKDREAFRFLLTPQKPLVPRLSPKVVFYDKEGKPLGQPLPRGKPFAELLRLAQAWGREGKALKEDLDGDGKVGEADLRLLAQGYFPKPETPSPEVPGGGEGQASGEEQAP,soluble
15,MRKMKSLYLAIQQHESRRWSPVAKVTKNGGVYRLVYTKGAWEVPGFSGFARMEDLYQEYRSAEIFPILKNRTLPRSRPEYQNYILWLGLSPEEHDELDELARSGGIRATDQIELIPAPERKEDGSFEAFFFVRGISYIPGTADIDLKIGDRLFVMKDFQNEQDSAALLLRTGDPVSVVGYAPRYYSHDLSRLAELCPPQDLLVTVERLNNNAPAAYKVLCKVVAPWPAGFDFFGSHVFDEVPKAPVSLEHHHHHH,not soluble
16,MRKMMQNHQNTRFYFSASLILFNDKEMGKRSNYHHLVAFGGFFKALPDDGDLLTRFVTVEKLKKLPHCKFPFFPVKKPSLSPKMQPSYDADDFMRRGFFGSFIGFRKRSSSKPGELYAKNVTYSQIFSRHLID,soluble
17,MRKPIEHTADIAYEISGNSYEELLEEARNILLEEEGIVLDTEEKEKMYPLEETEDAFFDTVNDWILEISKGWAPWRIKREGNELKVTFRKIRKKEGTEIKALTYHLLKFERDGDVLKTKVVFDT,not soluble
18,MRKQFLIAHRGYSTIAPENTHLAFAAAQLFGFDGLWMEVQLTKDKQIVVTNLDNYKVGNKTHKLSDINLVNLKKINLAKQFKVNVQEQTILTLKEVLMEFLTPFRFLLLFIKGEEEQQNQVLVEQLAQLLEGFELAKEKLILLSSHFSTIKYLNEKLKSFKTSFVFNSKKQLVHLTKDEITQNCRFLAPNDSFYHKNCAELQSYGLPIILWVIKGLLRYQFYENDRFVKFQIAAQLY,soluble
19,MRKSRLSRYKQNKLIELFVAGVTARTATEPDSIVYTDCYRRYDVLDAGEFSHFRINHSTHFAERQNHINGIGNFWNRAKRHLRKFDGIPKEHFEPYLKECERRFNNSEIKVLVPFLEHHHHHH,not soluble

# — the DeepSol protein solubility set
